± gives the uncertainty stated by the source.
Experiment: protein stability index of a GFP-peptide fusion (yeast GPS) (PSI 1-4); higher = more stable; sorted into four equal gates, so the index is relative within each strain
Summary of the method: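 Plasmids isolated from each sorting gate were PCR-amplified and Illumina-sequenced, and barcodes assigned the reads to strains. The gates, four of equal size, were set by GFP/Cherry fluorescence ratio on mid-log cultures in leucine-free medium. These cultures were yeast carrying a pooled library of tiled 17-residue yeast protein peptides fused downstream of GFP on a plasmid that also expresses Cherry. The protein stability index is the sum of every gate's read frequency times its gate number.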

Sequence | protein stability index (pdr5∆) | protein stability index (san1∆) | protein stability index (ubr1∆) | protein stability index (doa10∆)
WSEITESMSYLPDPILK [MCD1] | 2.97 ± 0.18 | 2.92 ± 0.23 | 2.64 ± 0.1 | 
ILQILNLMILNTKVPVD [YML103C/NUP188] | 1.51 ± 0.07 | 1.12 ± 0.29 | 1.34 ± 0.1 | 1.34 ± 0.1
QYIRTLVSEARTLWPEF [SSN8] | 2.67 ± 0.052 | 2.39 ± 0.06 | 2.42 ± 0.046 | 2.61 ± 0.052
NKRWKVDIGGKQHAVLM [RRP4] | 3.25 ± 0.067 | 3.18 ± 0.05 | 3.2 ± 0.037 | 2.87 ± 0.064
EKWISSKNSKLSIICVG [SIR3] | 1.52 ± 0.075 | 1.37 ± 0.17 | 1.23 ± 0.073 | 1.82 ± 0.091
SNQFKRSLATAVATPKA [COR1] | 1.75 ± 0.049 | 1.35 ± 0.089 | 1.3 ± 0.041 | 1.55 ± 0.051
ADSAVNRQTLMFTATMT [PRP28] | 2.72 ± 0.049 | 2.58 ± 0.046 | 2.65 ± 0.049 | 2.6 ± 0.056
TSAIEVLVGSCAYTGTG [RPN1] | 3.35 ± 0.062 | 3.29 ± 0.06 | 3.28 ± 0.093 | 3.06 ± 0.067
MDIILGIRVQDSVILAS [PRE1] | 1.62 ± 0.2 | 1.71 ± 0.24 | 1.4 ± 0.11 | 1.47 ± 0.23
IQSSLMTNLTYFLHLSV [YCS4] | 1.94 ± 0.049 | 1.89 ± 0.085 | 2.44 ± 0.058 | 2.15 ± 0.065
TTVYRYSAAKKIPDTYT [YAR002W/NUP60] | 2.07 ± 0.094 | 1.42 ± 0.14 | 1.45 ± 0.077 | 1.34 ± 0.087
LVQKTVQESGNIDYQKG [GRR1] | 3.37 ± 0.095 | 3.2 ± 0.09 | 3.23 ± 0.1 | 3.5 ± 0.1
DPRHIQLLGDVMTYKGE [RPO31] | 3.17 ± 0.055 | 2.79 ± 0.063 | 3.06 ± 0.048 | 2.91 ± 0.07
MKRNCGQIITLFSSRRL [RMP1] | 2.46 ± 0.053 | 2.42 ± 0.058 | 2.29 ± 0.071 | 2.3 ± 0.045
IVKGNIIDEIKCIPKKG [POP4] | 1.9 ± 0.05 | 2.29 ± 0.06 | 2.09 ± 0.045 | 1.79 ± 0.05
EDNYNPKMQWSLQDNSA [RPN4] | 3.3 ± 0.13 | 3.22 ± 0.087 | 3.07 ± 0.068 | 3.21 ± 0.11
VNTTRRFQYSDDEPAEK [YMR129W/POM152] | 3.17 ± 0.17 | 2.86 ± 0.19 | 2.95 ± 0.19 | 2.87 ± 0.22
EFFVQVLTHESLHRQQQ [DLS1] | 2.91 ± 0.14 | 2.81 ± 0.12 | 2.92 ± 0.13 | 2.99 ± 0.19
ENDAKKSKGDVDIKGED [NUT1] | 3.27 ± 0.2 | 2.95 ± 0.16 | 3.2 ± 0.12 | 3.18 ± 0.12
SQYSTMVNIGLHNLNEY [RGR1] | 2.09 ± 0.1 | 1.16 ± 0.09 | 1.25 ± 0.13 | 1.16 ± 0.14
KSVYETPKITAAEKSFK [SEC65] | 2.08 ± 0.19 |  | 1.53 ± 0.08 | 
SQEREFSLLVKAEIPPE [SIN4] | 2.98 ± 0.072 | 2.96 ± 0.073 | 2.83 ± 0.061 | 3.04 ± 0.1
IAFDDLIENKIQNKKIQ [RPN8] | 2.25 ± 0.081 | 2.57 ± 0.066 | 2.71 ± 0.05 | 2.54 ± 0.07
PYGVYHPPFIKYACLAI [SIN4] | 1.44 ± 0.04 | 1.46 ± 0.073 | 1.17 ± 0.034 | 1.42 ± 0.048
NLSQENDNEGKHISASI [YAR002W/NUP60] | 3.34 ± 0.06 | 3.13 ± 0.054 | 3.12 ± 0.044 | 3.04 ± 0.075
RLLEKSELPDIYSRDIG [SNF2] | 3.37 ± 0.13 | 2.96 ± 0.084 | 3.21 ± 0.17 | 3.12 ± 0.14

Sequence | protein stability index (pdr5∆) | protein stability index (san1∆) | protein stability index (ubr1∆) | protein stability index (doa10∆)
HETLARSSEEINSDNQN [RPN3] |  |  | 3.16 ± 0.19 | 3.15 ± 0.26
MIQEVIVEEDLEPFEAS [FAS2] | 3.16 ± 0.11 | 3.53 ± 0.063 | 3.47 ± 0.099 | 3.5 ± 0.18
KAKERLQALKANDEEAY [SNF2] | 2.51 ± 0.15 | 2.55 ± 0.067 | 1.77 ± 0.045 | 1.81 ± 0.14
GEINKICMESLFLEPSW [PCI8] | 1.89 ± 0.083 | 2.03 ± 0.12 | 1.99 ± 0.063 | 1.84 ± 0.12
ELAQDPQTMEHYKQQIA [YCS4] | 2.65 ± 0.077 | 2.1 ± 0.1 | 2.4 ± 0.06 | 2.31 ± 0.055
MKLNISYPVNGSQKTFE [RPS6A] | 2.77 ± 0.12 | 2.79 ± 0.12 | 2.94 ± 0.13 | 2.65 ± 0.17
ALPHVEINQVSLALVIR [RGR1] | 3 ± 0.22 | 2.24 ± 0.13 | 2.71 ± 0.086 | 1.91 ± 0.12
IGFTIKEYENHSGELMR [SMC1] | 2.79 ± 0.059 | 2.06 ± 0.12 | 2.86 ± 0.14 | 2.53 ± 0.14
LDRELLKPSMSVALHRH [RPT3] | 2.71 ± 0.1 | 3.07 ± 0.071 | 2.7 ± 0.16 | 2.98 ± 0.082
EIRRFQKSTELLIRKLP [HHT1] | 2.74 ± 0.095 | 1.87 ± 0.24 | 2.25 ± 0.12 | 2.64 ± 0.13
TKPSLRKASCIWLLSYI [ECM29] | 1.88 ± 0.051 | 1.86 ± 0.077 | 1.86 ± 0.038 | 1.75 ± 0.054
TKTVKRASKALIERYYP [RPS17A] | 2.57 ± 0.21 |  |  | 
REVENSVSLLNSDIANL [SMC1] | 2.59 ± 0.077 | 2.99 ± 0.07 | 2.86 ± 0.072 | 2.8 ± 0.063
NDLDYDLIADTITNSSS [YML103C/NUP188] | 3.06 ± 0.067 | 2.99 ± 0.036 | 3.02 ± 0.048 | 2.9 ± 0.061
QEQLKQMDQQLQYTALT [ARP7] | 2.67 ± 0.25 | 2.55 ± 0.2 | 3 ± 0.18 | 2.71 ± 0.16
SNNITSGLNRAISTGNW [RET1] | 3.37 ± 0.11 | 3.25 ± 0.061 | 3 ± 0.079 | 3.13 ± 0.11
IDEKSQFVETIVSKSIE [RPN2] | 2.19 ± 0.1 | 1.64 ± 0.096 | 1.98 ± 0.089 | 1.68 ± 0.1
FYSTNSQYFKFKNDFNS [RPN9] | 2.11 ± 0.054 | 2.1 ± 0.094 | 2.5 ± 0.053 | 2.1 ± 0.067
IDREGNARKVVGASVVV [RPS12] | 2.75 ± 0.25 |  | 3.31 ± 0.22 | 2.65 ± 0.18
DDNETENPNFWRQFGNR [GRR1] | 3.23 ± 0.056 | 3.31 ± 0.06 | 3.21 ± 0.056 | 3.17 ± 0.076
LKYPELSIKNSFIINFI [NUT1] | 2 ± 0.045 | 2.13 ± 0.076 | 1.94 ± 0.036 | 1.99 ± 0.062
FPQTAMLRRHAAPPSTN [DIS3] | 1.93 ± 0.12 |  | 1.74 ± 0.07 | 1.89 ± 0.1
PASDDILDNINHNGSAL [ITC1] | 3.21 ± 0.096 | 3.06 ± 0.095 | 3.29 ± 0.078 | 2.9 ± 0.1
SLVSTQSSSSTRSHEYG [REC8] | 3.04 ± 0.11 | 2.72 ± 0.057 | 3.19 ± 0.12 | 2.86 ± 0.08
IIGTFSDSYKVSLQNFS [RRP40] | 1.79 ± 0.079 | 2.24 ± 0.11 | 1.96 ± 0.054 | 2.11 ± 0.099
LTSVTNDICSVENYETS [SIR4] | 2.35 ± 0.057 | 1.88 ± 0.062 | 1.84 ± 0.059 | 2.18 ± 0.052

— the supplement of paper PMC9732359
